According to article PMC12661447, “Cyanophycinase is required for heterotrophy in cyanobacteria” (The Journal of Biological Chemistry, 2025):

Target: T1, cyanophycinase (CphB) (Synechocystis sp. PCC 6803 (endogenous …, UniProt P73832 1-271))
T1 sequence (looked up): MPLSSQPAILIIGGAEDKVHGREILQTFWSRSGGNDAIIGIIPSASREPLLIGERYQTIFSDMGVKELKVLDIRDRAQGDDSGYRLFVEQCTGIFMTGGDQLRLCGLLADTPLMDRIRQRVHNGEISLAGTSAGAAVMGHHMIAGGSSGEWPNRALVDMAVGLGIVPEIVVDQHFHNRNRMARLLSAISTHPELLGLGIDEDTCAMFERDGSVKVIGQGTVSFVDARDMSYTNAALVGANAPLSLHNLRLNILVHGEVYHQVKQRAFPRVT
Test: cell-based or functional assay

B1: FLAG-tagged variant of ArgD (acetylornithine aminotransferase) (enzyme, Synechocystis sp. PCC 6803, UniProt P73133 1-429, looked up)
chain: MTYSPVVESVEAQAFAVTDLSPAAEFKTADFDTYVMNTYGRFPIAIARGQGSTLWDTEGKSYLDFVAGIATCTLGHAHPALVRAVSDQIQKLHHVSNLYYIPEQGELAKWIVEHSCADRVFFCNSGAEANEAAIKLVRKYAHTVLDFLEQPVILTAKASFHGRTLATITATGQPKYQQYFDPLVPGFDYVPYNDIRSLENKVADLDEGNSRVAAIFLEPLQGEGGVRPGDLAYFKRVREICDQNDILLVFDEVQVGVGRTGKLWGYEHLGVEPDIFTSAKGLAGGVPIGAMMCKKFCDVFEPGNHASTFGGNPLACAAGLAVLKTIEGDRLLDNVQARGEQLRSGLAEIKNQYPTLFTEVRGWGLINGLEISAESSLTSVEIVKAAMEQGLLLAPAGPKVLRFVPPLVVTEAEIAQAVEILRQAIATLV
in vitro activity of recombinant CphB-His (2 μM; degradation of cyanophycin, β-Asp-Arg dipeptide at 2 min by LC-HRMS) with recombinant ArgD-His added in a 1:1 ratio against without ArgD (BSA control): ~2 fold
